Reference: US20190016809A1 (MONASH UNIVERSITY, published 2019)
Changes are numbered by the printed parent chain. Each block holds one binder with its values, some of them ahead of it.

Columns and labels:
human CXCR2 [1] = biological target: T1, human CXCR2 (human, UniProt P25025 1-360); assay: flow cytometry on L1.2 hCXCR2 cells
T1 construct: also called hCXCR2; C-X-C motif chemokine receptor 2
T1 sequence: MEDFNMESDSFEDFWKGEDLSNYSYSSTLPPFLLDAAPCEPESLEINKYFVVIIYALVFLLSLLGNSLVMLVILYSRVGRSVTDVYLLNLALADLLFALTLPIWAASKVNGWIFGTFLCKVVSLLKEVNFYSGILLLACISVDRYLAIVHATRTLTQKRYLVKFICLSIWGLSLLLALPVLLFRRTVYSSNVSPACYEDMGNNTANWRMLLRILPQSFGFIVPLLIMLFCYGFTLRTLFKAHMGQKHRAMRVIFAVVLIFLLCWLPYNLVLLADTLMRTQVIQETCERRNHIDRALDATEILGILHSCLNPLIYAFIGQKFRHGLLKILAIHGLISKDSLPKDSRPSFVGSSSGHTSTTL

human CXCR2 [2] = biological target: T1, human CXCR2; assay: ELISA, L1.2 hCXCR2 cells
human CXCR2 [3] = biological target: T1, human CXCR2; assay: competition with 125I-labelled CXCL3 (GRO-g) for CXCR2 on human neutrophils
Description: For ligand binding analysis, recombinant human GRO-g (“ligand”) was obtained from Peprotech (New Jersey, USA). 1251-Bolton-Hunter-labelled GRO-g was purchased from Perkin-Elmer (Boston, Mass., USA), with a specific activity of 2200 Ci/mM. Cells were washed once in binding buffer (50 mM Hepes, pH 7.5, 1 mM CaCI, 5 mM MgCb, 0.5% BSA) and resuspended in binding buffer at a concentration of 2.5×10^6 cells/ml. Cold Purified monoclonal antibody (cold competitor) was added to a 96-well plate followed by an equal volume (40 μl) binding buffer containing 1×10^5 cells. Cells and competitor were preincubated at room temperature for 15 min. Then radiolabeled ligand (final concentration 0.5-2 nM) was added to each well to give a final reaction volume of 120 μl. After a 60-min incubation at room temperature, the cells were washed three times with 1 ml of binding buffer containing 150 mM NaCl. The radioactivity (amount of bound label) in the cell pellets was counted in a TopCount liquid scintillation counter (Packard). Non-specific background binding was calculated by incubating cells […] radiolabelled-ligand. Samples were assayed in duplicate.

Peptide 2 = biological target: T2, Peptide 2 (human, biotinylated (position not given)); assay: ELISA on biotinylated peptide captured on streptavidin
T2 construct: Biotinylated peptide of the human CXCR2 N-terminal region, captured on streptavidin plates; also called Nter-2; Peptide 2/Nter-2
T2 peptide: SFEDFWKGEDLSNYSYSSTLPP
Description: (§1) Epitope mapping studies were performed to determine the region within CXCR2 that is recognized by anti-CXCR2 mAb. Initially, biotinylated peptides corresponding to the N-terminal region and the first, second and third extracellular loops of human CXCR2 were used in an ELISA.
(§2) Three overlapping biotinylated peptides spanning the entire N-terminal region of human CXCR2 were then synthesized and used in more defined anti-CXCR2 mAb epitope mapping studies. Peptide 1 ([…]) (SEQ ID NO:53) corresponds to amino acid position 1-21 of the human CXCR2; Peptide 2 ([…]) (SEQ ID NO:55) corresponds to amino acid position 10-31 and Peptide 3 ([…]) (SEQ ID NO:54) corresponds to amino acid 20-46 position of the human CXCR2. Briefly, multiwell plates were coated with streptavidin and washed before the biotinylated peptides were added to separate wells and incubated to facilitate binding of the peptides to the plate. Different anti-human CXCR2 antibodies were then tested by adding the respective antibodies to the wells of the plate and incubating the plate. An isotype control and buffer only were included as negative controls. Following washing, appropriate conjugated antibodies were added and the plates were incubated. The plates were washed again and binding of the antibodies to the immobilised peptides was visualised.

[4] = biological target: T3, biotinylated peptide corresponding to the second extracellular loop of human CXCR2 (human, UniProt P25025 184-208, limits assumed, biotinylated (position not given)); assay: as above
T3 construct: domain: second extracellular loop; also called 2nd loop
T3 peptide (looked up): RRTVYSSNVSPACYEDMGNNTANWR
Description: as §1, §2

Peptide 1 = biological target: T4, Peptide 1 (human, biotinylated (position not given)); assay: as above
T4 construct: Biotinylated peptide of the human CXCR2 N-terminal region, captured on streptavidin plates; also called Nter-1; Peptide 1/Nter-1
T4 peptide: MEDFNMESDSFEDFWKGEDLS
Description: as §1, §2

Peptide 3 = biological target: T5, Peptide 3 (human, biotinylated (position not given)); assay: as above
T5 construct: Biotinylated peptide of the human CXCR2 N-terminal region; also called Nter-3; Peptide 3/Nter-3
T5 peptide: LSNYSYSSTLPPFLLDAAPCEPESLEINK
Description: as §1, §2

human CXCR2 [5] = biological target: T6, human CXCR2 (UniProt P25025 1-360); assay: flow cytometry, CXCR2 L1.2 cells
T6 chain: T1 sequence

human CXCR7 = biological target: T7, human CXCR7 (human, UniProt P25106 1-362); assay: flow cytometry on transfected cells
T7 construct: whole, on cells; also called hCXCR7
Description: (§3) To assess reactivity of mAbs against transfected cells, we used indirect immunofluorescence staining and flow cytometry. Cells were washed once with PBS and resuspended in 100 μl PBS containing 2% (wt/vol) BSA and 0.1% (wt/vol) sodium azide (staining buffer) and purified antibody. After 30 min at 4° C., cells were washed twice with staining buffer and resuspended in 50 μl PE-conjugated anti-human IgG (Jackson ImmunoResearch Laboratories) diluted 1:500 in staining buffer for the detection of humanized mAbs or 50 μl PE-conjugated anti-mouse IgG (Jackson ImmunoResearch Laboratories) for the detection of mouse mAbs. After incubating for 20 min at 4° C., cells were washed twice with staining buffer and analyzed on LSRII flow cytometer. 7-AAD staining was used to exclude dead cells.

human CXCR3 = biological target: T8, human CXCR3 (human, UniProt P49682 1-368); assay: flow cytometry on transfected cells
T8 construct: whole, on cells; also called hCXCR3
T8 sequence (looked up): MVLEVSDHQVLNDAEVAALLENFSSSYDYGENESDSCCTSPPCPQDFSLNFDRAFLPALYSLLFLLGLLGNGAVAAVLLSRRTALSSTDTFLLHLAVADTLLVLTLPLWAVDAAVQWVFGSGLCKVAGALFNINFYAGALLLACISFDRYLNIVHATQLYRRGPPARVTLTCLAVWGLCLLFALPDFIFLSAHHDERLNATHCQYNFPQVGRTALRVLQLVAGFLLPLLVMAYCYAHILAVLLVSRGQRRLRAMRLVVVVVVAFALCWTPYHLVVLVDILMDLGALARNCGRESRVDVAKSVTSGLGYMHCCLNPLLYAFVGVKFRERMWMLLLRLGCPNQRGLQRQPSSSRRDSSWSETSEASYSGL
Description: as §3

human CXCR1 = biological target: T9, human CXCR1 (human, UniProt P25024 1-350); assay: flow cytometry on transfected cells
T9 construct: whole, on cells; also called hCXCR1
T9 sequence (looked up): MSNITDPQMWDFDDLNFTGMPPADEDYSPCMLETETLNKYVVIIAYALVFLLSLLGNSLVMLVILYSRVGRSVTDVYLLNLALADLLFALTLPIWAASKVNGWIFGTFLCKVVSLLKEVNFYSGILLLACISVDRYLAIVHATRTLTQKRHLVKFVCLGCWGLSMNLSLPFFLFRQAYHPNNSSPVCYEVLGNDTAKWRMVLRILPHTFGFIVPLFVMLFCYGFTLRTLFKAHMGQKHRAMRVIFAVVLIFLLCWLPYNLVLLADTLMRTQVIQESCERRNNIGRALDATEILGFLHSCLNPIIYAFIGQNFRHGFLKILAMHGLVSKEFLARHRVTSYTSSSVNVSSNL
Description: as §3

human CCR6 = biological target: T10, human CCR6 (human, UniProt P51684 1-374); assay: flow cytometry on transfected cells
T10 construct: whole, on cells; also called hCCR6
T10 sequence (looked up): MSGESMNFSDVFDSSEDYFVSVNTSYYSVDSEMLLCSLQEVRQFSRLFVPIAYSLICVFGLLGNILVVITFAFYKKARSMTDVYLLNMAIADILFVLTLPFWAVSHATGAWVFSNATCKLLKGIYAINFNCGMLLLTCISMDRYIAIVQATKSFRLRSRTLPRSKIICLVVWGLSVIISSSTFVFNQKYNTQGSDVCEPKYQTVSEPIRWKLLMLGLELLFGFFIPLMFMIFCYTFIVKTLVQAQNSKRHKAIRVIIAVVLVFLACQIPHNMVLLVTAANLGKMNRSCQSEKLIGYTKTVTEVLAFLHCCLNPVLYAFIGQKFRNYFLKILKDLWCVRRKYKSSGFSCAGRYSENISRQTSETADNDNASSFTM
Description: as §3

T7 sequence (P25106 whole entry): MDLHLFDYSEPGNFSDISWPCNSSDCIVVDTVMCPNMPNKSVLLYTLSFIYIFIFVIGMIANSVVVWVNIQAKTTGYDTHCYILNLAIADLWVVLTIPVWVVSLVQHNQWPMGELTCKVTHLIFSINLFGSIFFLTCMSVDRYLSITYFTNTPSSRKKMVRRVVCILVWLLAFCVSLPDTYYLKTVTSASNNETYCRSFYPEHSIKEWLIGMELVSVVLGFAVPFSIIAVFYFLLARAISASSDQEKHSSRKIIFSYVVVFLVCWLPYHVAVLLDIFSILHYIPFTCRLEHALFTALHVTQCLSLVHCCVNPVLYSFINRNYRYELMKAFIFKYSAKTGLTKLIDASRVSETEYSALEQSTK

EC50 (human CXCR2 [1]): 1.05 nM | EC50 (human CXCR2 [2]): 1.2 nM | IC50 (human CXCR2 [3]): 0.7 nM | binding result (Peptide 2): binds | binding result [4]: no binding | binding result (Peptide 1): binds | binding result (Peptide 3): no binding | EC50 (human CXCR2 [5]): 1.5 nM | binding result (human CXCR7): no binding | binding result (human CXCR3): no binding | binding result (human CXCR1): no binding | binding result (human CCR6): no binding
B1: m3H9 (antibody, mouse IgG3, V domains shown)
VH: QVQLQQSGPELVKPGASVKISCKASGYAFSNSWMNWVKQRPGKGLEWIGRIYPGDGNINYYGKFKDKATLTADKSSNTAYMQLSSLTSEDSAVYFCARSFLYVDFDYWGQGTTLTVSS
VL: VIVMTQTPLSLPVSLGDQASISCRSSQSLVHSNGNTYLQWYLQKPGQSPKLLIYKVSNRFSGVPDRFSGSGSGTDFTLKISRVEAEDLGVYFCSQGTHVPYTFGGGTKLEIKR
notes: also called mouse 3H9; purified mouse 3H9 mAb

EC50 (human CXCR2 [5]): 2.2 nM
B2: h3H9 (antibody, V domains shown)
VH: QVQLVQSGAEVKKPGASVKVSCKASGYAFSNSWMNWVRQAPGQRLEWIGRIYPGDGNINYYGKFKDKATLTADKSANTAYMELSSLRSEDTAVYFCARSFLYVDFDYWGQGTTLTVSS
VL: B1 VL with V1D, T7S, S14T, L15P, D17E, Q18P, K50Q, L88V, G105Q

EC50 (human CXCR2 [1]): 1.35 nM | EC50 (human CXCR2 [2]): 1.4 nM | IC50 (human CXCR2 [3]): 11.1 nM | binding result (Peptide 2): binds | binding result [4]: no binding | binding result (Peptide 1): binds | binding result (Peptide 3): no binding | binding result (human CXCR7): no binding | binding result (human CXCR3): no binding | binding result (human CXCR1): no binding | binding result (human CCR6): no binding
B3: mCM2 (antibody, V domains shown)
VH: B1 VH with D104Y
VL: B1 VL with V1D, I2A, V56L, S72A, G96S
notes: Mouse hybridoma monoclonal antibody

EC50 (human CXCR2 [1]): 1.28 nM | EC50 (human CXCR2 [2]): 1.46 nM | IC50 (human CXCR2 [3]): 3.4 nM | binding result (Peptide 2): binds | binding result [4]: no binding | binding result (Peptide 1): binds | binding result (Peptide 3): no binding | binding result (human CXCR7): no binding | binding result (human CXCR3): no binding | binding result (human CXCR1): no binding | binding result (human CCR6): no binding
B4: m6G7 (antibody, V domains shown)
VH: B1 VH
VL: B1 VL with V1D, I2V, T7A, S28T
notes: as for B3
